Assay results taken from US20140178390A1 (published 2014).

Molecular target: Human CXCR7 (UniProt P25106 1-362)
Test: FACS competition with biotinylated SDF-1

Human CXCR7, sequence (P25106 whole entry): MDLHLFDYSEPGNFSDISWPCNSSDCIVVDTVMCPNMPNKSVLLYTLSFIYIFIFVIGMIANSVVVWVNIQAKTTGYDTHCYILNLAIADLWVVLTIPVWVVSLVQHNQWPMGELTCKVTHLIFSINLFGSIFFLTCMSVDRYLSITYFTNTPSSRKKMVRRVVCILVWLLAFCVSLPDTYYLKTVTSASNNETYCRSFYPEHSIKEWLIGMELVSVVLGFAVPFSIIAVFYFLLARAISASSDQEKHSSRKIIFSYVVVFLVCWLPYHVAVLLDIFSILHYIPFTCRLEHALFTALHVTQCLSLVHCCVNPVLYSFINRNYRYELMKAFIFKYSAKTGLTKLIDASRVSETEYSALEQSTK

IC50: 7.77 nM
B1: Nanobody 07C03 with Tag-1 (VHH)
VHH: EVQLVESGGGLVQAGESLTLSCAASGRTLSAYIMGWFRQAPGKEREFVAGIWSGGYTHLADSAKGRFSISRDNAKNTVYLQMNGLKPEDTAVYYCAAGLRGRQYSNWGQGTQVTVSS
